# In the nanobody polyreactivity screen of Harvey et al. (2022):
# Assay: yeast display, Sf9 membrane polyspecificity reagent, FACS + sequencing; frameworks hold sequencing errors
# Method in brief: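 Galactose induction of a Saccharomyces cerevisiae BJ5465 synthetic nanobody display library ran 36–48 hours. The cells were then stained for 1 hour at 4 °C with 10% biotinylated, detergent-solubilized Sf9 membrane reagent, pulled down on streptavidin microbeads and FACS-sorted into low and high (top ~1%) gates on expression and reagent-binding fluorescence. Labels for polyreactivity follow the gate of origin.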
row,Sequence,polyreactivity (PSR sort gate)
1,QVQLVESGGGLVQAGGSLRLSCAASGSIFHTYLMGWYRQAPGKERELVASSTRSGGSTYYADSVKGRFTISRDNAKNTVYLQMNSLKPEDTAVYYCAATYRTANHRYYYWGQGTQVTVSS,high polyreactivity
2,QVQLVESGGGLVQAGGSLRLSCAASGSIFHYNAMGWYRQAPGKERELVAAITSGGSTYYADSVKGRFTISRDNAKKTVYLQMNSLKPEDTAVYYCATVFYRTRYVPYGYWGQGTQVTVSS,low polyreactivity
3,QVQLVESGGGLVQAGGSLRLSCAASGSIFHYNAMGWYRQAPGKERELVARISVNGGRTYYADSVKGRFTISRDNAKNTDYLQMNSLKPEDTAVYYCAVEGVWRSFFYGYDSWGQGTQVTVSS,low polyreactivity
4,QVQLVESGGGLVQAGGSLRLSCAASGSIFHYYAMGWYRQAPGKERELVAAISWSGGRTNYADSVKGRFTISRDNAKNTVYLQMNSLKPEDTAVYYCAAAERSYSGGGKIGKYYYWGQGTQVTVSS,high polyreactivity
5,QVQLVESGGGLVQAGGSLRLSCAASGSIFIANAMGWYRQAPGKERELVAAITLNGGSTYYADSVKGRFTISRDNAKNTVYLQMNSLKPEDTAVYYCAADWVWVAPQYWIDEYDYWGQGTQVTVSS,low polyreactivity
6,QVQLVESGGGLVQAGGSLRLSCAASGSIFIANAMGWYRQAPGKERELVASISSGGSTNYADSVKGRFTISRDNAKNTVYLQMNSLKPEDTAVYYCAADGTDDYGGDFYLWVDYWGQGTQVTVSS,low polyreactivity
7,QVQLVESGGGLVQAGGSLRLSCAASGSIFIAYGMVWYRQEPGKERELVAAITVSGGNTYYADSVKGRFTISRDNAKNTVYLQMNSLKPEDTAVYYCAADYWYYYGKVLYDYWGQGTQVTVSS,low polyreactivity
8,QVQLVESGGGLVQAGGSLRLSCAASGSIFIDYAMGWYRQAPGKERELVAAISWSGGSTYYADSVKGRFTISRDNAKNTVYLQMNSLKPEDTAVYYCAAYSHVSIWYDYDYWGQGTQVTVSS,low polyreactivity
9,QVQLVESGGGLVQAGGSLRLSCAASGSIFIGNTMGWYRPAPGNERELVATIRRSGSRTYYADSVKGRFTISRDNAKNTVYLQMNSLKPEDTAVYYCAADRLRTSGYKTIYDYWGQGTQVTVSS,low polyreactivity
10,QVQLVESGGGLVQAGGSLRLSCAASGSIFIGYAMGWYRQAPGKERELVAAISWSGDSTYYADSVKGRFTISRDNAKNTVYLQMNSLKPEDTAGYYCAADDLDYDNYYQITGEYDYWGQGTQVTVSS,high polyreactivity
11,QVQLVESGGGLVQAGGSLRLSCAASGSIFIGYAMGWYRQAPGKERELVASIRNGGSTNYADSVKGRFTITRDNAKNTVYLQMNSLKPEDTAVYYCAGRYPVFLVSFGFDYWGQGTQVTVSS,low polyreactivity
12,QVQLVESGGGLVQAGGSLRLSCAASGSIFIQYAMGWYRQAPGKERELVAAITSGGGSTYYADSVKGRFTISRDNAKNTVYLQMNSLKPEDTAVYYCAVDRTRRPAVPYVTLDRGYCGQGTQVTVSS,low polyreactivity
13,QVQLVESGGGLVQAGGSLRLSCAASGSIFIQYAMGWYSQAPGKERELVAAINSSGGRTYYADSVKGRFTISRDNAKNTVYLQMNSLKPEDTAVYYCAADPGSSFDWGQGTQVTVSS,low polyreactivity
14,QVQLVESGGGLVQAGGSLRLSCAASGSIFIRYAMGWYRQAPGKERELVASISRSGGSTYYADSVKGRFTISRDNAKNTVYLQMNSLKPEDTAVYYCAARRVRPNGYTSSPLDYWGQGTQVTVSS,high polyreactivity
15,QVQLVESGGGLVQAGGSLRLSCAASGSIFISYAMGWYRQAPGKERELVAAISSGGSTNYADSVKGRFTISRDNAKNTVYLQMNSLIPEDTAVYYCAAASAAGYDYWGQGTQVTVSS,low polyreactivity
16,QVQLVESGGGLVQAGGSLRLSCAASGSIFISYARGWYRQAPGKERELVAAITWSGDSTYYADSVKGRFTISRDNAKNTVYLQMNSLKPEDTAVYYCAADWYFRNQRGYYWGQGTQVTVSS,low polyreactivity
17,QVQLVESGGGLVQAGGSLRLSCAASGSIFITYAMGWYRQAPGKERELVAAIRDSGDRTYYADSVKGRFTISRDNAKNTVYLQMNSLKPEDTAVYYCNARWQKPLKYDYWGQGTQVTVSS,low polyreactivity
18,QVQLVESGGGLVQAGGSLRLSCAASGSIFIYAMGWYRQAPGKERELVATISWSGTSTYADSVKGRFTISRDNAKNTVYLQMNSLKPEDTAVYYCNKLKRTYYSSGYPHDYWGQGTQVTVSS,low polyreactivity
19,QVQLVESGGGLVQAGGSLRLSCAASGSIFIYNVMGWYRQAPGKERELVATIRGSGGSTYYADSVKGRFTISRDNAKNTVYLQMNSLKPEDTAVYYCARRDYPYQWGRAYNYWGQGTQVTVSS,high polyreactivity
20,QVQLVESGGGLVQAGGSLRLSCAASGSIFIYYAMGWYRQAPGKEREFVADISYSGDSTYYADSVKGRFTISRDNAKNTVYFQMNSLKPEDTAVYYCAADTWYDAGVYPYDYWGQGTQVTVSS,high polyreactivity
21,QVQLVESGGGLVQAGGSLRLSCAASGSIFIYYAMGWYRQAPGKERELVAAISWSGDRTYYADSVKGRFTISRDNAKNTVYLQMNSLKPEDTAVYYCAARVVTPSAFPRYYWGQGTQVTVSS,high polyreactivity
22,QVQLVESGGGLVQAGGSLRLSCAASGSIFIYYAMGWYRQAPGKERELVAAISYSDGDTYYADSVKGRFTISRDNAKNTVYLQMNSLKPEDTAVYYCAAEVPQYYDVGWEDYCGQGTQVTVSS,high polyreactivity

row,Sequence,polyreactivity (PSR sort gate)
1,QVQLVESGGGLVQAGGSLRLSCAASGSIFIYYAMGWYRQAPGKEREMVADITFSAGTNTYYADSVKGRFTISRDNAKNTVYLQKNSLKPEDTAVYYCNADRGFIGSITEYDYWGQGTQVTVSS,low polyreactivity
2,QVQLVESGGGLVQAGGSLRLSCAASGSIFIYYTMGWYRQAPGKEREFVASISWRGGRTYYADSVKGRFTISRDNAKNTVYLQMNSLKPEETAVYYCAAEQSRGIEFSYYSLYYWGQGTQVTVSS,high polyreactivity
3,QVQLVESGGGLVQAGGSLRLSCAASGSIFKDYAMGWYRQAPGKERELVASITSGGRTYADSVKGRFTISRDNAKNTVYLQMNSLKPEDTAVYYCNTAHSKAWQYDYWGQGTQVTVSS,high polyreactivity
4,QVQLVESGGGLVQAGGSLRLSCAASGSIFKFYAMGWYRQAPGKERELVAAISQSGGRTYYADSVKGRFTISRDNAKNTVYLQMNSLKPEDTAVYYCAKSVFPVYGRPSNLWFNYWGQGTQVTVSS,high polyreactivity
5,QVQLVESGGGLVQAGGSLRLSCAASGSIFKFYTMGWYRQAPGKERELVAAISSSDGSTHYADSVKGRFTISRDNAKNTVYLQMNSLKPEDTAVYYCARRRYSRYSVTRGNYWGQGTQVTVSS,high polyreactivity
6,QVQLVESGGGLVQAGGSLRLSCAASGSIFKGYAMGRYIQAPGKERELVAAISSSGGSTYYADSVKGRFTISRDNAKNTVYLQMNSLKPEDTAVYYCNTDRYYTYDYLGQGTQVTVSS,low polyreactivity
7,QVQLVESGGGLVQAGGSLRLSCAASGSIFKGYAMGWYRQAPGKERELVAAITYSGGSTYYADSVKGRFTISRDNAKNTVYLQMNSLKPEDTAVYYCAADSEQDNLRYYRWVWYYYWGQGTQVTVSS,low polyreactivity
8,QVQLVESGGGLVQAGGSLRLSCAASGSIFKGYDMGWYRQAPGKERELVAAISSGSTNYADSVKGRFTISRDNAKNTVYLQMNSLKPEDTAVYYCNADLGRATFYQRVVIERGGYWGQGTQVTVSS,low polyreactivity
9,QVQLVESGGGLVQAGGSLRLSCAASGSIFKIYAMGWYRQAPGKARELVATISINGGSTYYADSVKGRFTISRDNAKNTVYLQMNSLKPEDTAVYDCNKVNEYITSQDDYGGQGTQVTVSS,low polyreactivity
10,QVQLVESGGGLVQAGGSLRLSCAASGSIFKKYAMGWYRQAPGKERELVAAISSGGGSTYYADSVKGRFTISRDNAKNTVYLQMNSLKPEDTAVYYCNARIQYFKYRGYEYWGQGTQVTVSS,high polyreactivity
11,QVQLVESGGGLVQAGGSLRLSCAASGSIFKLYAMGWYRQAPGKERELVASISVSGGSTYYADSVKGRFTISRDNAKNTVYLQMNSLKPEDTAVYYCAAEKRSSIVGSGGNYWGQGTQVTVSS,low polyreactivity
12,QVQLVESGGGLVQAGGSLRLSCAASGSIFKNYAMGWYRQAPGKERELVASITTGASTNYADSVKGLFTISRDNAMNTVYLQMNSLKPEDSAVYYCAAYRPTYYAYYYWGQGTQVTVSS,high polyreactivity
13,QVQLVESGGGLVQAGGSLRLSCAASGSIFKQNAMGRYRQAPGKESELVSDITSCGGSTYYADSVKGRFTISRDNAKNTVYLQMNSLKPEDTAVYYCNVVETSLELGWQAFDYWGQGTQVTVSS,low polyreactivity
14,QVQLVESGGGLVQAGGSLRLSCAASGSIFKRYAMGWYRQAPGKERELVAAISRRGASTYYADSVKGRFTISRDNAKNTVYLQMNSLKPEDTAVYYCNAYLPRQGPSGRPRSQYDSWGQGTQVTVSS,high polyreactivity
15,QVQLVESGGGLVQAGGSLRLSCAASGSIFKSNAMGWYRQAPGKERELVAAISNGGITNYADSVKGRFTISRDNAKNTVFLQMNSLKPEDTAVYYCATSDVREIWVDYWGQGTQVTVSS,low polyreactivity
16,QVQLVESGGGLVQAGGSLRLSCAASGSIFKSYAMGWYRQAPGKERELVAAITWRSGRTYYADSVKGRFTISRDNAKNTVYLQMNSLKPEDTAVYYCAADDTSYYIYSYDYWGQGTQVTVSS,low polyreactivity
17,QVQLVESGGGLVQAGGSLRLSCAASGSIFKSYAMGWYRQAPGKERELVAVISDSGSTYYADSVKGRFTISRDNAKNTVYLQKNSLKPEDTAVYYCRGRGRRNEYWGQGTQVTVSS,high polyreactivity
18,QVQLVESGGGLVQAGGSLRLSCAASGSIFKSYAMGWYRQAPGKERELVAVISDSGSTYYADSVKGRFTISRDNAKNTVYLQMNSLKPEDTAVYYCRGRGRRNEYWGQGTQVTVSS,high polyreactivity
19,QVQLVESGGGLVQAGGSLRLSCAASGSIFKTNAMGWYRQAPRKERELVAGISNVGSTNYADSVKGRFTISRDNAKNTVYLQMNSLKPEDTAVYYCAAPYTSQTIPDYVRYFIEYDYWGQATQVTVSS,low polyreactivity
20,QVQLVESGGGLVQAGGSLRLSCAASGSIFKTYAMGWSRPAPGKERELVAAITSSGGSTYYADSVKGRFTISRDNAKNTVDLQMNSLKPEDTAVYDCAALSGQARRMYYWGQGTQVTVSS,high polyreactivity
21,QVQLVESGGGLVQAGGSLRLSCAASGSIFKVYAMGWYRQAPGKERELVASISYSGGSTYYADSVKGRFTISRDNAKNTVYLQMNSLKPEDTAVYYCNADTITYQGYDYGYWGQGTQVTVSS,low polyreactivity
